Measured values published in patent US20250333541A1, “ANTIBODY, AND DRUG CONJUGATE AND USE THEREOF” (EVOPOINT BIOSCIENCES CO., LTD., priority 2022, published 2025).

T1: cynomolgus monkey TF-His (cynomolgus monkey, UniProt A0A2K5VX02 33-253)
T1 construct: range 33-252; Recombinant extracellular segment expressed in HEK293-EBNA cells and purified on a nickel column; also called c.TF-His; c; TF-his; not shown: His tag from vector pTT5-His
T1 sequence: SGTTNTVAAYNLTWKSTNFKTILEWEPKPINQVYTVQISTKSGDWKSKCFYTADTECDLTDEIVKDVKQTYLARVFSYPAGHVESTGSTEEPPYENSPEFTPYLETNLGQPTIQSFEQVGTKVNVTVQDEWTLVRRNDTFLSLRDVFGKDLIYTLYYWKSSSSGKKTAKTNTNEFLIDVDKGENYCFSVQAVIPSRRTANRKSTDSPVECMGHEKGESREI


How the values were obtained:
human TF-His [1] = target: T2, human TF-His (human, UniProt P13726 33-251); experiment: antigenic protein-based ELISA, before conjugation (TF antigen species not stated)
T2 construct: range 33-251; Recombinant extracellular segment expressed in HEK293-EBNA cells and purified on a nickel column; also called h.TF-His; h; TF-his; not shown: His tag from vector pTT5-His
Procedure: (§1) The ELISA plate was coated overnight with TF antigen (h.TF-His or c.TF-His antigen) in 50 mM carbonate coating buffer (CBS coating solution) at a coating concentration of 1 μg/mL in a volume of 100 μL at 4° C. The next day, the coating solution was removed, each well was washed once with 300 μL of PBS, and 100 μL of 2% BSA (Biotopped, A6020) in PBS was added to each well for blocking at 37° C. for 2 h. The test sample was subjected to a gradient dilution with 2% BSA in PBS to establish 11 concentration points. 100 μL of each of the samples obtained by the gradient dilution was added to the plate, and the plate was incubated at 37° C. for 2 h. The supernatant was removed, and each well was washed three times with 300 μL of PBST. 100 μL of HRP-conjugated secondary antibody in 2% BSA was added to each well, and the plate was incubated at 37° C. for 1 h. […] At the end of the incubation, the secondary antibody was removed, each well was washed five times with 300 μL of PBST, and 100 μL of TMB substrate (Huzhou InnoReagents Co., Ltd., TMB-S-004) was added to each well for color development for 5-20 min. 50 μL of 2 N HCl was added to each well to stop the reaction, and OD450 nm values were read using a microplate reader (manufacturer: MD, model: SpectraMax) and imported into GraphPad software for fitting and plotting to determine the binding of the samples to TF antigenic proteins.

human TF-His [2] = target: T2, human TF-His; experiment: BLI (ForteBio Octet), antibody on ProA sensor, TF-His as analyte
Procedure: (§2) The dynamic affinity of the humanized antibodies was determined by ForteBio. The experimental procedures were as follows: a ProA sensor (18-5010, Octet) was taken out and pre-wetted with a PBST diluent (pH 7.4) for 10 min. The antibodies to be immobilized were diluted to 5 μg/mL. […] The program was set up, the sensor plate and sample plate were put in, then the program started. The sensor was regenerated with 20 mM glycine solution (pH 1.7). The data were analyzed using Octet analysis software to derive a result graph.

cynomolgus monkey TF-His [3] = target: T1, cynomolgus monkey TF-His; experiment: as above
Procedure: as §2

human TF-His [4] = target: T2, human TF-His; experiment: ELISA, plate coated with h.TF-His
Procedure: as §1
(§3) The assay was performed as described in the general methods. Briefly, an ELISA plate coated with a human TF-his protein or a cynomolgus monkey TF-his protein was blocked with 2% BSA at 37° C. for 2 h, and each of the antibodies obtained by the gradient dilution (starting at 10 μg/mL, 3-fold graded dilution, 11 concentration points) was added. The plate was incubated at 37° C. for 2 h.

[5] = target: T3, tissue factor (TF) on the surface of TF-positive tumor cells (human, UniProt P13726 33-295); experiment: flow cytometry on NCI-H358 cells
T3 construct: whole, on cells; The cell line used is named under assay or readout in each row; also called TF on NCI-H358 cells; TF on KYSE520 cells
Procedure: (§4) A TF low/medium-expressing cell line NCI-H358 (source: Nanjing Cobioer, CBP60136) and a TF high-expressing cell line KYSE520 (source: Nanjing Cobioer, CBP60658) were digested with trypsin, collected by centrifugation, and washed three times with pre-cooled PBS. The cells were resuspended in 1% BSA and seeded into a 96-well sharp-bottom plate at 3×10⁵ cells/well. Each of the antibodies obtained by the gradient dilution was added, and the plate was incubated at 4° C. for 1 h. The cells were washed three times with pre-cooled PBS. 1 μL of anti-human fluorescent secondary antibody (APC anti-human IgG Fc Antibody, Biolegend, 410712) was added to each well, and the plate was incubated at 4° C. for 0.5 h. The cells were washed three times with pre-cooled PBS, resuspended, and detected by a flow cytometer (Sony, LE-SA3800GA). The data were imported into GraphPad software for curve fitting.

[6] = target: T3, tissue factor (TF) on the surface of …; experiment: cell-based or functional assay
[7] = target: T3, tissue factor (TF) on the surface of …; experiment: cell ELISA on fixed NCI-H358 cells
Procedure: TF antigen-positive cells (MDA-MB-231 or NCI-H358 cells) were seeded into a 96-well plate at 5×10⁴ cells/well one day prior to the experiment. On the day of the experiment, the culture supernatant was removed, each well was washed once with 300 μL of PBS, and 100 μL of 4% paraformaldehyde was added to each well for immobilization at room temperature for 20 min. The paraformaldehyde was removed, and each well was washed twice with 300 μL of PBS, and 100 μL of 2% BSA in PBS was added to each well for blocking at 37° C. for 2 h. After the blocking was completed, 30 μL of the test sample (hybridoma supernatant or purified antibody) was added to each well and the plate was incubated at 37° C. for 2 h. The liquid was removed, and each well was washed three times with 300 μL of PBST. 100 μL of HRP-conjugated secondary antibody in 2% BSA was added to each well, and the plate was incubated at 37° C. for 1 h. […] The secondary antibody was removed, each well was washed five times with 300 μL of PBST, and 100 μL of TMB substrate (Huzhou InnoReagents Co., Ltd., TMB-S-004) was added to each well for color development for 5-20 min. 50 μL of 2 N HCl was added to each well to stop the reaction, and OD450 nm values were read using a microplate reader (manufacturer: MD, model: SpectraMax) to determine the binding of the samples to TF-positive cells.
The assay was performed as described in the general methods. Briefly, TF antigen-positive NCI-H358 cells were digested with trypsin, collected, seeded into a 96-well plate at 5×10⁴ cells/well and incubated overnight, and then immobilized with 4% paraformaldehyde. After the paraformaldehyde was removed and the cells were washed with PBS, the plate was blocked with 2% BSA at 37° C. for 2 h. Each of the antibodies obtained by the gradient dilution (starting at 10 μg/mL, 3-fold graded dilution, 11 concentration points) was added. The plate was incubated at 37° C. for 2 h.

[8] = target: T3, tissue factor (TF) on the surface of …; experiment: cell-based or functional assay; remark: listed apart in the source
cynomolgus monkey TF-His [9] = target: T1, cynomolgus monkey TF-His; experiment: ELISA, plate coated with c.TF-His
Procedure: as §1, §3

[10] = target: T3, tissue factor (TF) on the surface of …; experiment: flow cytometry on KYSE520 cells
Procedure: as §4

[11] = target: T3, tissue factor (TF) on the surface of …; experiment: cell-based or functional assay; remark: listed apart in the source
human TF-His [12] = target: T2, human TF-His; experiment: antigenic protein-based ELISA, after conjugation with B81 (TF antigen species not stated)
Procedure: as §1

Binder	EC50 (human TF-His [1]) [ng/mL]	Kd (human TF-His [2]) [nM]	koff (human TF-His [2]) [s⁻¹]	kon (human TF-His [2]) [M⁻¹ s⁻¹]	Kd (cynomolgus monkey TF-His [3]) [nM]	koff (cynomolgus monkey TF-His [3]) [s⁻¹]	kon (cynomolgus monkey TF-His [3]) [M⁻¹ s⁻¹]	EC50 (human TF-His [4]) [ng/mL]	EC50 [5] [ng/mL]	IC50 (ng/mL), inhibition of FVIIa-induced IL-8 release by MDA-MB-231 cells [6] [ng/mL]	Maximum inhibition rate (%), FVIIa-induced IL-8 release by MDA-MB-231 cells [6] [%]	EC50 [7] [ng/mL]	coagulation time V50 (s), MDA-MB-231 cells + human plasma, 2 mM Ca2+, 50 µg/mL antibody [8] [s]	coagulation time V50 (s), MDA-MB-231 cells + human plasma, 5 mM Ca2+, 20 µg/mL antibody [8] [s]	EC50 (cynomolgus monkey TF-His [9]) [ng/mL]	EC50 [10] [ng/mL]	Endocytosis rate (%) on NCI-H358 cells, 2 h [11] [%]	Endocytosis rate (%) on NCI-H358 cells, 4 h [11] [%]	EC50 (human TF-His [12]) [ng/mL]
2B12B10-hz1 (antibody, human IgG1, kappa, V domains shown, Humanized IgG1 kappa) VH: EVQLVESGGGLVQPGGSLRLSCAASGFAFSDSGMHWVRQAPGKGLEWVAYISRDSNTIYYADSVKGRFTISRDNAKNSLYLQMNSLRAEDTAVYYCGRRYYGDYFDYWGQGTLVTVSS VL: DIVLTQSPATLSLSPGERATLSCRASQRVTNYLHWYQQKPGQSPRLLIKYASQSISGIPARFSGSGSGTDFTLTISSLEPEDFAVYFCQQSYNWPLTFGQGTKVEIKR	6.65	13.8	0.00289	209000	33.8	0.0116	344000	6.72	187	128	94.1	3.88	882	24.2	13.6	140	34.3	49.6	
2B12B10-hz1-B81 (antibody, human IgG1, kappa, V domains shown, drug-linker DL-01 (B81) on cysteine sulfhydryl group; prepared by the TF-ADC (DAR8) method (1 toxin molecule per light chain); drug-linker DL-01 (B81) on cysteine sulfhydryl groups; prepared by the TF-ADC (DAR8) method (3 toxin molecules per heavy chain), also called 2B12B10-B81) VH: EVQLVESGGGLVQPGGSLRLSCAASGFAFSDSGMHWVRQAPGKGLEWVAYISRDSNTIYYADSVKGRFTISRDNAKNSLYLQMNSLRAEDTAVYYCGRRYYGDYFDYWGQGTLVTVSS VL: DIVLTQSPATLSLSPGERATLSCRASQRVTNYLHWYQQKPGQSPRLLIKYASQSISGIPARFSGSGSGTDFTLTISSLEPEDFAVYFCQQSYNWPLTFGQGTKVEIKR																			3.76
30G11B7-hz1-B81 (antibody, human IgG1, kappa, V domains shown, drug-linker DL-01 (B81) on cysteine sulfhydryl group; prepared by the TF-ADC (DAR8) method (1 toxin molecule per light chain); drug-linker DL-01 (B81) on cysteine sulfhydryl groups; prepared by the TF-ADC (DAR8) method (3 toxin molecules per heavy chain)) VH: EVQLVESGGGLVKPGGSLRLSCAASGFTFSDYGMFWVRQAPGKGLEWVAYISRGSTTIYYADSVKGRFTISRDNAKNSLYLQMNSLRAEDTAVYFCTRRYYGDYFDYWGQGTLVTVSS VL: EIVLTQSPDFQSVTPKEKVTITCRASQSISNYLHWYQQKPDQSPKLLIKYASQSISGVPSRFSGSGSGTDFTLTINSLEAEDAATYFCQQSYNWPLTFGQGTKVEIKR																			7.75
30G11B7-hz1 (antibody, human IgG1, kappa, V domains shown, Humanized IgG1 kappa) VH: EVQLVESGGGLVKPGGSLRLSCAASGFTFSDYGMFWVRQAPGKGLEWVAYISRGSTTIYYADSVKGRFTISRDNAKNSLYLQMNSLRAEDTAVYFCTRRYYGDYFDYWGQGTLVTVSS VL: EIVLTQSPDFQSVTPKEKVTITCRASQSISNYLHWYQQKPDQSPKLLIKYASQSISGVPSRFSGSGSGTDFTLTINSLEAEDAATYFCQQSYNWPLTFGQGTKVEIKR	7.68	25.8	0.00506	197000	146	0.053	364000	7.91	145	129	100	4.73	1450	29.2	20.8	138	19.8	46.1	
27H8H3-hz1-B81 (antibody, human IgG1, kappa, V domains shown, drug-linker DL-01 (B81) on cysteine sulfhydryl group; prepared by the TF-ADC (DAR8) method (1 toxin molecule per light chain); drug-linker DL-01 (B81) on cysteine sulfhydryl groups; prepared by the TF-ADC (DAR8) method (3 toxin molecules per heavy chain)) VH: QVQLVQSGAEVKKPGASVKVSCKASGYTFTTYWMHWVRQAPGQGLEWMGMIDPSDSYTSYAQKFQGRVTLTVDTSTSTAYMELSSLRSEDTAVYYCTRGSGPGLFAYWGQGTLVTVSS VL: DIQETQSPSSLSASVGDRVTITCRASQGISNYLNWYQQKPGKAPKLLIYHTSRLHSGVPSRFSGSVSGTDFTLTISSLQPEDFATYFCQQGNTLPYTFGQGTKVEIKR																			3.43
22F11H5-hz1-B81 (antibody, human IgG1, kappa, V domains shown, drug-linker DL-01 (B81) on cysteine sulfhydryl group; prepared by the TF-ADC (DAR8) method (1 toxin molecule per light chain); drug-linker DL-01 (B81) on cysteine sulfhydryl groups; prepared by the TF-ADC (DAR8) method (3 toxin molecules per heavy chain)) VH: QVQLVQSGAEVKQPGASVKVSCKASGYTFTTYWMHWVRQAPGQGLEWMGMIDPSDSYTTYAQKFQGRVTLTVDTSTSTAYMELSSLRSEDTAVYYCARGSGPGLFAYWGQGTLVTVSS VL: DIQETQSPSSLSASVGDRVTITCRASQDIRNYLNWYQQKPGKAPKLLIYHTSRLQSGVPSRFSGSGSGTDYTLTISSLQPEDFATYYCQQGNMPPYTFGQGTKVEIKR																			8.83
